Measurements taken from patent publication US20040181828A1 (E I DUPONT DE NEMOURS, published 2004).

Biological target: T1, ADGal4/rDr1 fusion protein (Gal4 activation domain fused to rice Dr1, encoded by pADGal4::rDr1) (rice)
T1 construct: Expressed in yeast YRG-2 for the two-hybrid assay; Coding region of rice Dr1 (EcoR I/Sma I fragment) fused in frame
T1 chain: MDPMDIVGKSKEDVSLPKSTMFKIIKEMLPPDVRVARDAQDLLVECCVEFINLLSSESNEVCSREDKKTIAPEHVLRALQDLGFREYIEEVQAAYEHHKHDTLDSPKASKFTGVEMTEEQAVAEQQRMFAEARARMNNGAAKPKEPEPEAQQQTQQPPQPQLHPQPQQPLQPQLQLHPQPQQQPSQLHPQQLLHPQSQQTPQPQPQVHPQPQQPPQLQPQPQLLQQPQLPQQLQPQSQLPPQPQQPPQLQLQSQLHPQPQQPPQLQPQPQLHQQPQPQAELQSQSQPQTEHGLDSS
Assay: yeast two-hybrid (Gal4 system, YRG-2), growth on medium lacking Trp, Leu and His
Text: USA 88: 9578-9582). The rice Dr1 and DRAP1 cDNAs described in Example 5 were fused with pAD-Gal4 and pBD-Gal4 to generate pADGal4::rDr1 and pBDGal4::rDRAP1 constructs respectively. The EcoR I and Sma I fragment containing coding region of rice Dr1 was cloned into pAD-Gal4 EcoR I and Sma I sites to generate pADGal4::rDr1. The Mfe I and Pst I fragment containing coding region of rice DRAP1 was cloned into pBD-Gal4 EcoR I and Pst I sites to generate pBDGal4::rDRAP1. The pADGal4::rDr1 and pBDGal4::rDRAP1 were transformed independently and co-transformed into Stratagene's YRG-2 yeast strain (Stratagene, San Diego, Calif.). Competent YRG-2 cells were prepared according to the method of Eible (1992) Biotechniques 13:18-20) and transformed with one microgram of DNA added to a […] aliquot of competent yeast cells. A mixture containing 240 PI 50% PEG (MW 3350), 36 μl 1 M lithium acetate, and 50 μg of salmon sperm DNA was added to the yeast-DNA mixture. After mixing the mixture was incubated at 30° C. for 30 minutes and heat shocked at 42° C. for 20 minutes. Maximum of 200 μl of transformation mixture was plated on selective plates. For initial plating transformants containing the pADGal4::rDr1 construct (trp+), were plated on selection medium lacking tryptophan. […]

B1: Truncated rice DRAP1 (N-terminal deletion of 63 amino acids) fused to Gal4 DNA binding domain, encoded by pBDGal4::rDRAP1NN64 (other, not shown: large carriers)
chain: SFHLKQCVRRYSSFDFLTEVVNKVPDLGGADSCGDDRALPRRRKALPNGSDPENEESRSSKMAVRSANISPRGRGRGRGRGRGRPPTKRKEVGYVQFEDESSMFADQGEALPGEETVPETIHGTESVPPSTHPPAEAPSAAEIPAPNPKVEEAKNDDHQPDWPMPDAIGNIGVGPSGFGHLTVQVDEDEDYDNED
notes: Lacks the N-terminal 63 amino acids of rice DRAP1
B1: no binding.
